Experimental data reported in paper PMC12865202 (2026).

Target: Chicken CapZ (full length α/β) (chicken, UniProt P13127 1-286; P14315 1-277)
Test: ITC

B1: RavB^108-148 synthetic peptide (peptide)
chain: SKREETKLTHFVRERAQGPRGRRLPAHLQAKIKRVSLDKPH
Kd: 170 nM
